{"source": "paper PMC7524730", "key": {"PRMT5": {"target": "PRMT5 (UniProt O14744)", "assay": "co-IP and immunoblot", "details": "reference: LSH wild type; sites S503"}}, "note": "Like-named read-outs stand apart in the source and are kept apart here."}
{"substance": "LSH (lymphoid-specific helicase; HELLS) (from UniProt Q9NRZ9) LSH S503A", "values": [{"measurement": "binding against the reference", "setting": "PRMT5", "value": "stronger"}]}
{"substance": "LSH (lymphoid-specific helicase; HELLS, PASG, SMARCA6): Lambda Protein Phosphatase (λPP)", "values": [{"measurement": "other", "setting": "phosphorylation at S503", "value": "increases"}]}
{"substance": "LSH (lymphoid-specific helicase; HELLS, PASG, SMARCA6): MAPK1 shRNA knockdown; LY3214996 (MAPK1/2 inhibitor)", "values": [{"measurement": "other", "setting": "phosphorylation at S503", "value": "increases"}]}
{"substance": "LSH (lymphoid-specific helicase; HELLS, PASG, SMARCA6): R309A", "values": [{"measurement": "localisation_or_trafficking", "setting": "methylation at R309", "value": "no change"}, {"measurement": "other", "setting": "methylation at R309", "value": "increases"}]}
{"substance": "LSH (lymphoid-specific helicase; HELLS, PASG, SMARCA6): R507A", "values": [{"measurement": "other", "setting": "methylation at R507", "value": "no change"}]}
{"substance": "LSH (lymphoid-specific helicase; HELLS, PASG, SMARCA6): R541A", "values": [{"measurement": "other", "setting": "methylation at R541", "value": "no change"}]}
{"substance": "LSH (lymphoid-specific helicase; HELLS, PASG, SMARCA6): S503A", "values": [{"measurement": "localisation_or_trafficking", "setting": "phosphorylation at S503", "value": "no change"}, {"measurement": "other", "setting": "phosphorylation at S503", "value": "increases"}]}
{"substance": "LSH (lymphoid-specific helicase; HELLS, PASG, SMARCA6): S503D phosphomimic", "values": [{"measurement": "other", "setting": "phosphorylation at S503", "value": "decreases"}]}
